Measured values: US20240417479A1 (LASSEN THERAPEUTICS, published 2024)
Where a chain is given by its changes, count along the chain named.

T1: human IL-18BP (interleukin-18 binding protein), mature human isoform A (human, UniProt O95998 31-194)
T1 sequence: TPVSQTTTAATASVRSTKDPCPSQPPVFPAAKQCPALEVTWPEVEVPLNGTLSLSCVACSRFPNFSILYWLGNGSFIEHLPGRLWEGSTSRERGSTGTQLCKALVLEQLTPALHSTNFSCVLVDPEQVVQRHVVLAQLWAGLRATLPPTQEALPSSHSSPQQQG

T2: cynomolgus monkey IL-18BP (cynomolgus monkey)
T2 chain: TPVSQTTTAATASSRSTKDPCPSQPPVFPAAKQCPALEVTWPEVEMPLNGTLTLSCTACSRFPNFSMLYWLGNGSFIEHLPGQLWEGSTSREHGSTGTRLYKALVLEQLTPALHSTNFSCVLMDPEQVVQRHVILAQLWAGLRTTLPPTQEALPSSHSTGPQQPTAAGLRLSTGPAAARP

B1: SA302a (antibody, human IgG1, V domains shown)
VH: QVQLQESGPGLVKPSQTLSLTCTVSGYSITSDYNAHWIRQPPGKGLEWIGYIHYSGSTNYNPSLKSRVTISRDTSKNQFSLKLSSVTAADTAVYYCARNYGSIYVNYFDYWGQGTLVTVSS
VL: EIVLTQSPATLSLSPGERATLSCSASSSVSYMYWYQQKPGQAPRPLIYRTSNLASGIPARFSGSGSGTDFTLTISSLEPEDFAVYYCQQYHSYPTFGGGTKVEIK
B2: SA338a (antibody, human IgG1, V domains shown)
VH: B1 VH with S31Q, S57Q, N59Y, Y100F
VL: B1 VL with Q89L
B3: SA337a (antibody, human IgG1, V domains shown)
VH: B1 VH with S31Q, S57Q
VL: B1 VL with Q89L
B4: SA340a (antibody, human IgG1, V domains shown)
VH: B1 VH with S31Q, S57Q, N59Y, Y100F
VL: B1 VL with T95K
B5: SA339a (antibody, human IgG1, V domains shown)
VH: B1 VH with S31Q, S57Q, N59Y, Y100F
VL: B1 VL with P94V
notes: Humanized; human IgG1, kappa

Legend:
[1] = molecular target: T1, human IL-18BP (interleukin-18 binding …); assay: cell-based or functional assay
[2] = molecular target: T1, human IL-18BP (interleukin-18 binding …); assay: cell-based or functional assay; remark: listed apart in the source
[3] = molecular target: T2, cynomolgus monkey IL-18BP; assay: cell-based or functional assay
[4] = molecular target: T2, cynomolgus monkey IL-18BP; assay: cell-based or functional assay
[5] = molecular target: T1, human IL-18BP (interleukin-18 binding …); assay: BLI (Octet), mAb on AHC biosensor, IL-18BP in solution

Binder | EC50; CCL2 release (ELISA) from human PBMC with IL-12 + IL-18, PBMC assay 1 (endogenous IL-18BP) [1] [nM] | EC50; IFNγ secretion (ELISA) from purified human NK cells with precomplexed hIL-18:hIL-18BP plus IL-12 [2] [nM] | EC50; IFNγ release (ELISA) from cynomolgus monkey PBMC with IL-12 + IL-18, assay format 1 (endogenous IL-18BP) [3] [nM] | EC50; IFNγ release (ELISA) from cynomolgus monkey PBMC, assay format 2 (pre-complexed IL-18:IL-18BP, plus IL-12) [4] [nM] | Kd [5] [nM]
B1 | 25 | 1.3 | 3.4 | 0.63 | 
B2 | 0.9 | 0.43 | 0.14 | 0.41 | 
B3 | 4.7 | 0.59 | 0.58 | 0.39 | 
B4 |  | 0.23 |  |  | 
B5 |  |  |  |  | 0.087
